Results on three molecules are retold here after US20250084178A1 (ARCUS BIOSCIENCES, published 2025).

The target of test [1] is T1, human CD39 expressed on the cell surface (human, UniProt P49961 1-510).
T1 sequence: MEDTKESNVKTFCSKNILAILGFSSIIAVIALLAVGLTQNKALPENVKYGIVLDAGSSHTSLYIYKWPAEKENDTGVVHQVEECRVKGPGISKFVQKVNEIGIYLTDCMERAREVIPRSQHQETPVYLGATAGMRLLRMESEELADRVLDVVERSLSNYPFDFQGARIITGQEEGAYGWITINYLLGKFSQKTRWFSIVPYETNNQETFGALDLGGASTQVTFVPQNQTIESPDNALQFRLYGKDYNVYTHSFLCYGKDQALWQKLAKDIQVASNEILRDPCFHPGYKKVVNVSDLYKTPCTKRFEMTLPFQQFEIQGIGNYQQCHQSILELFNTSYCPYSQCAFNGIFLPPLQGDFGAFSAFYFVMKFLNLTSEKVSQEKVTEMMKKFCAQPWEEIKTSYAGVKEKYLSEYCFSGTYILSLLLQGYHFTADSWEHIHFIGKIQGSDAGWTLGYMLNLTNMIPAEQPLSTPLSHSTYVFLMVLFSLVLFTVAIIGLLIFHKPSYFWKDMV
In words: cell-based or functional assay.

The target in test [2] is T2, recombinant human CD39 (soluble) (human, UniProt P49961 38-478, limits assumed).
T2 sequence (looked up): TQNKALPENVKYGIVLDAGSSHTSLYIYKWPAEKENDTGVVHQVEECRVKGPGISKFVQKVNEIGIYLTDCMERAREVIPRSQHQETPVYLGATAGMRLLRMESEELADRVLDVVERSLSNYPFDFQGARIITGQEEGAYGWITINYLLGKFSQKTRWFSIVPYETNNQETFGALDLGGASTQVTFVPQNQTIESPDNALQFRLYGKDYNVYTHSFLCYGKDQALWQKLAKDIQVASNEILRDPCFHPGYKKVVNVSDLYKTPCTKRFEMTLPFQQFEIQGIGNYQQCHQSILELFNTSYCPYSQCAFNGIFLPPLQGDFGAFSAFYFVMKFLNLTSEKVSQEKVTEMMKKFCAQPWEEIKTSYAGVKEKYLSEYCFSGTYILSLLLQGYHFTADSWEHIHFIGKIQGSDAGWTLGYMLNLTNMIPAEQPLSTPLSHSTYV
Nature of the test: cell-based or functional assay.

Test [3] has as its target T1, human CD39 expressed on the cell surface. In words: cell-based or functional assay. This is another data set of the same source.
The target is the same in test [4]. Nature of the test: cell-based or functional assay. This is another data set of the same source.
The target is the same in test [5]. In words: FACS on CHO-K1 cells overexpressing human CD39.
The target of test [6] is T3, cynomolgus monkey CD39 expressed on HEK-293 cells (cynomolgus monkey, UniProt P49961 5-510 (human entry)).
T3 construct: also called Cynomolgus Monkey CD39-HEK293
T3 chain: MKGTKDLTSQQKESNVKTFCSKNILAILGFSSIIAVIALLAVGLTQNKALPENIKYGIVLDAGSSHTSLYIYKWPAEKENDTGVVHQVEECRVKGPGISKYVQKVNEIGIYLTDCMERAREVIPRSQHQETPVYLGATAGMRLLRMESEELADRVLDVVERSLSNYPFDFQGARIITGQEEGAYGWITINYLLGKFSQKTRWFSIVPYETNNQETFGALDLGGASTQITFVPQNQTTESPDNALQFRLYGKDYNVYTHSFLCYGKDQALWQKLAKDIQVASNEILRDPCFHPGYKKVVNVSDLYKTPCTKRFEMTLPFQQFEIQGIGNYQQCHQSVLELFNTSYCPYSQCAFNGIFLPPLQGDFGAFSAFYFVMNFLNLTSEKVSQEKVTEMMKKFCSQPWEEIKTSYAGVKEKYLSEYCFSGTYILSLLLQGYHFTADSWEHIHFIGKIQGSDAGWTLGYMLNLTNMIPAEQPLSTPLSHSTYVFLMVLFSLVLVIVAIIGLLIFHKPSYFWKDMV
Nature of the test: FACS on HEK293 cells overexpressing cynomolgus CD39.

The target of test [7] is T1, human CD39 expressed on the cell surface. Nature of the test: flow cytometry on purified human CD14+ monocytes, 0 uM ATP. (In general: Flow cytometry measures light scatter and fluorescence of single cells or particles in a stream.)
For test [8] the target is unchanged. Nature of the test: flow cytometry on purified human CD14+ monocytes, 400 uM ATP.
Test [9] addresses T4, murine CD39 expressed on HEK-293 cells (murine, UniProt P55772 1-510).
T4 construct: also called mouse CD39
T4 sequence: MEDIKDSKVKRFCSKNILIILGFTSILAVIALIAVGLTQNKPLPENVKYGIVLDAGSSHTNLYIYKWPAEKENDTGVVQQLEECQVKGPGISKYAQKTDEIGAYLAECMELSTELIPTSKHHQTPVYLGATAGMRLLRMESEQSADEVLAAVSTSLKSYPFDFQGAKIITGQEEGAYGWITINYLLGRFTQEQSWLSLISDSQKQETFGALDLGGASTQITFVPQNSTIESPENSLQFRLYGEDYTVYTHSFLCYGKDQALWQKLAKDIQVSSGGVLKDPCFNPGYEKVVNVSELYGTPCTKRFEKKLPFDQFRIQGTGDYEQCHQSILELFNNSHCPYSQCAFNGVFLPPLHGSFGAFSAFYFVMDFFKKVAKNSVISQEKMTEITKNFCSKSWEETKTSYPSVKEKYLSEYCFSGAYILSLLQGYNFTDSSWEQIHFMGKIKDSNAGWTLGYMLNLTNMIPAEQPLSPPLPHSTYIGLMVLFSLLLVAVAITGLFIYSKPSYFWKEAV
Nature of the test: FACS on HEK-293 cells overexpressing murine CD39 (method of Example 1).

Test [10] deals with T5, soluble His-tagged human CD39 ECD protein (human, UniProt P49961 38-478).
T5 construct: also called human CD39 ECD His-tagged antigen; Sino Biological Cat. No. 16020-H08B
T5 sequence: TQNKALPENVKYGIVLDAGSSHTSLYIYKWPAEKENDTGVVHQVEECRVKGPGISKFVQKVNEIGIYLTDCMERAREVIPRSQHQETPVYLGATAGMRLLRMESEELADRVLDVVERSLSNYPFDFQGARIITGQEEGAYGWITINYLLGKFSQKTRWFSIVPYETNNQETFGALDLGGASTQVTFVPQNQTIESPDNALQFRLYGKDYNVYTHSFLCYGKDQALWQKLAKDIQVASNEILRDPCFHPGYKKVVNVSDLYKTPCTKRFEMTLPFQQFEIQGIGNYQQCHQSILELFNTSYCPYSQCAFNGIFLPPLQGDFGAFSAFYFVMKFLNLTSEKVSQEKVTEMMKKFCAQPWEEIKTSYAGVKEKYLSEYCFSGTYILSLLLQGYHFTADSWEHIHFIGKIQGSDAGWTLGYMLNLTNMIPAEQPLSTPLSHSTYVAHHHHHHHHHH
Nature of the test: SPR (Biacore 8K), antibody captured via anti-human Fc, CD39 ECD analyte, 25 C. Background: SPR reads the build-up and loss of mass on a sensor chip optically.

Test [11] addresses T5, soluble His-tagged human CD39 ECD …. Nature of the test: SPR (Biacore 8K), antibody captured via anti-human Fc, CD39 ECD analyte.
For test [12] the target is unchanged. The test is described as above. The source holds these as a separate data set.

B1: ch19_IGG4.P (antibody, human IgG4 S228P, kappa, V domains shown)
VH: QVQLKETGPGLVQPTQTLSITCTVSGFSLTSYFTQWVRQTPGKGLEWMGFIRSGGSTQYNSAFKSRLSISRDTSKNQVFLKMNSLKTEDTGVYYCARDRPDYHDGTYGVLDVWGQGASVTVSS
VL: DIRMTQSPASLSASLGETVNIECLASEDIDSDLAWYQKKPGKSPQLLIYNGNALQNGVPSRFSGSGSGTHFSLKINSLQSEDVATYFCQQYINYPYTFGGGTKLELRR
notes: rat/human chimera of antibody 19, human IgG4 (S228P), kappa
Regarding B1, the “Human THP-1 CD39 inhibition IC50” value in test [1] stood at 0.44 nM. Also, in test [2], the “IC50, inhibition of recombinant CD39 enzymatic activity, 20 uM ATP” value (shortened to “IC50, inhibition”) worked out at 1.8 nM and the “Max Inhibition (%), recombinant CD39, 20 uM ATP” value (from here on “Max Inhibition (%) … 20 uM ATP”) was 100%. In test [3], the “IC50, CD39 enzymatic inhibition on SK-MEL-5 cells, 20 uM ATP” value was 5.4 nM and the “Max Inhibition (%), SK-MEL-5 cells” value was 55%. In [4], the “IC50, CD39 enzymatic inhibition on THP-1 cells, 20 uM ATP” value was determined as 0.75 nM and the “Max Inhibition (%), THP-1 cells” value was 75%. Besides, in test [5], the EC50 (commonly the concentration needed to bring the measured effect to its halfway point) was 9.04 nM. This molecule had an EC50 in [6] of 4.3 nM. In test [7], the concentration for a half-maximal effect (EC50) is 61 nM. In addition, the response in [8] was half-maximal at 49 nM (EC50). The binding result in [9] is “no binding”. Further, in [10], the Kd (commonly the equilibrium constant for the complex coming apart) came to 0.443 nM; the koff – broadly, a measure of how fast the partners let go of each other – worked out at 0.0004 s⁻¹; the kon (usually the second-order rate constant of association) stood at 902000 M⁻¹ s⁻¹.

B2: ch31_IGG4.P (antibody, human IgG4 S228P, kappa, V domains shown)
VH: EVHLQQSGAALVRPGTSVKLPCKVSGDSITAYFMHFVRQRPGQGLEWMGRIDPDHERTKYAEKFKNRASLTSETSSNTVFLQLTSLTSEDTATYFCTTERVPGFETDYWGQGVMVTVSS
VL: DIVLTQSPTLAVSLGQRATISCRTNQTVDHYGTTYMNWYQQKPGQQPKLLIYLASSLASGIPARFSGRGSGTDFTLTIDPVEADDTATYYCQQSRNLWTFGGGTKLELKR
notes: rat/human chimera of antibody 31, human IgG4 (S228P), kappa
As to B2, in test [1], the “Human THP-1 CD39 inhibition IC50” value was determined as 0.09 nM. In test [2], the “IC50, inhibition” value came out at 1.3 nM and the “Max Inhibition (%) … 20 uM ATP” value turned out to be 100%. In [3], the “IC50, CD39 enzymatic inhibition on SK-MEL-5 cells, 20 uM ATP” value worked out at 2.4 nM and the “Max Inhibition (%), SK-MEL-5 cells” value stood at 63%. Further, in test [4], the “IC50, CD39 enzymatic inhibition on THP-1 cells, 20 uM ATP” value was 0.14 nM and the “Max Inhibition (%), THP-1 cells” value came out at 86%. In addition, the EC50 in [5] stood at 4.44 nM. For the same molecule, in test [6], a half-maximal effect (EC50) was put at 2.55 nM. In test [7], this molecule displayed an EC50 of 27 nM. Moreover, the EC50 in [8] is 28 nM. Besides, the binding result in test [9] is reported as “no binding”. Moreover, in [11], the equilibrium dissociation constant (Kd) stood at 0.129 nM, the koff is 0.00015 s⁻¹ and the kon is 1.16e+06 M⁻¹ s⁻¹. In addition, in test [10], the Kd came to 0.113 nM, the koff was found to be 0.000125 s⁻¹ and the kon worked out at 1.1e+06 M⁻¹ s⁻¹.

B3: ch39_IGG4.P (antibody, human IgG4 S228P, kappa)
heavy: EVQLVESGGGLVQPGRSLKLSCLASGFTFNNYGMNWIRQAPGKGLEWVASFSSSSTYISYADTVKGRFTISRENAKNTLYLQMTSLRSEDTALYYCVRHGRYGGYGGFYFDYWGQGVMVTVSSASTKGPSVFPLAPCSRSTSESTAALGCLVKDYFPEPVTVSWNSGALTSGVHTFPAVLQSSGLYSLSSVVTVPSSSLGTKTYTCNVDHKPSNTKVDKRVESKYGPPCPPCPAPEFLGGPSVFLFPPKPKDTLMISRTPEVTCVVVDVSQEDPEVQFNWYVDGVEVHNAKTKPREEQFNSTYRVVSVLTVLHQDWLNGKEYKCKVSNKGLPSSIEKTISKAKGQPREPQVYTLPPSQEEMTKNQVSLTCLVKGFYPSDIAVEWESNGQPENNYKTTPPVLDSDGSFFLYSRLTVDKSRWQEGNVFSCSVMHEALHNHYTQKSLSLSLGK
light: DTVLTQSPALAVSPGERVSISCRASEGVKSYMHWYQQKPGQQPKLLIYKASNLASGVPARFSGSGSGTDFTLTIDPVEADDTATYFCQQSWNDPTFGAGTKLELKRTVAAPSVFIFPPSDEQLKSGTASVVCLLNNFYPREAKVQWKVDNALQSGNSQESVTEQDSKDSTYSLSSTLTLSKADYEKHKVYACEVTHQGLSSPVTKSFNRGEC
notes: rat/human chimera of antibody 39, human IgG4 (S228P), kappa
Regarding B3, the “Human THP-1 CD39 inhibition IC50” value in [1] turned out to be 0.042 nM. Besides, in test [2], the “IC50, inhibition” value is 2.3 nM and the “Max Inhibition (%) … 20 uM ATP” value was 100%. In [3], the “IC50, CD39 enzymatic inhibition on SK-MEL-5 cells, 20 uM ATP” value is 0.56 nM and the “Max Inhibition (%), SK-MEL-5 cells” value stood at 63%. For the same molecule, in [4], the “IC50, CD39 enzymatic inhibition on THP-1 cells, 20 uM ATP” value came out at 0.11 nM and the “Max Inhibition (%), THP-1 cells” value came to 67%. This molecule displayed an EC50 in [5] of 0.79 nM. Further, a half-maximal effect in [6] (EC50) was put at 0.32 nM. In test [7], this molecule gave an EC50 of 0.69 nM. In test [8], this molecule gave an EC50 of 1.3 nM. Besides, the binding result in [9] was “no binding”. In [12], the Kd is 0.336 nM, the koff amounted to 9.4e-05 s⁻¹ and the kon was 280000 M⁻¹ s⁻¹. Also, in [10], binding was put at a Kd of 0.214 nM, the koff worked out at 7.45e-05 s⁻¹ and the kon amounted to 348000 M⁻¹ s⁻¹.
